Positions count from the first letter of the chain named.
Experiments:
[1] = target: T1, biotin-labeled active hMMP-9(cat)_FLAG_Avi (human, UniProt P14780 107-449, biotin on the Avi tag (biotin ligase BirA)); test: ELISA, biotinylated target on streptavidin plate, anti-S-tag HRP detection
T1 construct: His tag and propeptide removed; also called active human MMP-9 enzyme active domain
Procedure: (§1) The biotin-labeled pro-hMMP-9(cat)_His6_FLAG_Avi obtained in (2-1-6) or biotin-labeled active hMMP-9(cat)_FLAG_Avi obtained in (2-1-7) was immobilized on a streptavidin coated 96-well plate (Thermo Fisher Scientific). After blocking with 3% BSA, 1 to 1,000 nM of the binding peptides were added, and reacted at room temperature for 1.5 hours. After washing, goat anti-S-Tag HRP conjugated (Bethyl Laboratories, Inc.) was added, and reacted at room temperature for 1 hour. After washing, substrates of ELISA POD substrate A.B.T.S kit (Nacalai Tesque Inc.) were added, and reacted at room temperature.

[2] = target: T2, biotin-labeled pro-hMMP-9(cat)_His6_FLAG_Avi (human, UniProt P14780 20-449, biotin on the Avi tag (biotin ligase BirA)); test: as above
T2 construct: Secretion signal Met1-Ala19 left out; also called pro human MMP-9 enzyme active domain; not shown: His tag (His6 by the construct's name)
T2 sequence (P14780 other isoform, or with tags, fused parts or gaps): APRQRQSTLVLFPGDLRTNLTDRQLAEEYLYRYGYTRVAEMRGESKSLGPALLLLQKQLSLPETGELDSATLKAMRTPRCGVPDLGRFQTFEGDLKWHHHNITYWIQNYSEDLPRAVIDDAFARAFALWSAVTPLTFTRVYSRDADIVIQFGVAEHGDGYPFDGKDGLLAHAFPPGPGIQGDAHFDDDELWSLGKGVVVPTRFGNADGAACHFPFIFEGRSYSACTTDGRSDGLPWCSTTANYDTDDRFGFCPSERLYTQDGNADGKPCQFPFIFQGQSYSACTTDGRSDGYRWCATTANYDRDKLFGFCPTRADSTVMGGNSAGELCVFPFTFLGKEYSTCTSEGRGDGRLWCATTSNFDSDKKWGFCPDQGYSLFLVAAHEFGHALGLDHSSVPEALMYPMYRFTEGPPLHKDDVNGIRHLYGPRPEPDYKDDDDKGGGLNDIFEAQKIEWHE
Procedure: as §1

active hMMP-9(cat)_Q199G = active hMMP-9(cat)_Q199G (human, UniProt P14780 107-449); test: cell-based or functional assay
active hMMP-9(cat)_Q199G, sequence (P14780 107-449 Q199G): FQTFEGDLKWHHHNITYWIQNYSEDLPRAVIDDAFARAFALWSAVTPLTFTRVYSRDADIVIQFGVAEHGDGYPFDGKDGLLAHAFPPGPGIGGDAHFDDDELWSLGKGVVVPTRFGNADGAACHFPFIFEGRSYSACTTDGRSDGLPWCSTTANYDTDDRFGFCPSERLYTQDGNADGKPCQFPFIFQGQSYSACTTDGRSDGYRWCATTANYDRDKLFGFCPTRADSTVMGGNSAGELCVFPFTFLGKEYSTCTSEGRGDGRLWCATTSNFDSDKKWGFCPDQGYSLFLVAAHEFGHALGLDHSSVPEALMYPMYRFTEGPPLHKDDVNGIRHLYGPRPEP

active hMMP-9(cat)_F192A = active hMMP-9(cat)_F192A (human, UniProt P14780 107-449); test: cell-based or functional assay
active hMMP-9(cat)_F192A, sequence (P14780 107-449 F192A): as the sequence (P14780 107-449 Q199G) above, with F86A, G93Q counted along it

active hMMP-9(cat)_Y423A = active hMMP-9(cat)_Y423A (human, UniProt P14780 107-449); test: cell-based or functional assay
active hMMP-9(cat)_Y423A, sequence (P14780 107-449 Y423A): as the sequence (P14780 107-449 Q199G) above, with G93Q, Y317A counted along it

active hMMP-9(cat)_M422I = active hMMP-9(cat)_M422I (human, UniProt P14780 107-449); test: cell-based or functional assay
active hMMP-9(cat)_M422I, sequence (P14780 107-449 M422I): as the sequence (P14780 107-449 Q199G) above, with G93Q, M316I counted along it

active hMMP-9(cat)_F110A = active hMMP-9(cat)_F110A (human, UniProt P14780 107-449); test: cell-based or functional assay
active hMMP-9(cat)_F110A, sequence (P14780 107-449 F110A): as the sequence (P14780 107-449 Q199G) above, with F4A, G93Q counted along it

active hMMP-9(cat)_L397A = active hMMP-9(cat)_L397A (human, UniProt P14780 107-449); test: cell-based or functional assay
active hMMP-9(cat)_L397A, sequence (P14780 107-449 L397A): as the sequence (P14780 107-449 Q199G) above, with G93Q, L291A counted along it

active hMMP-9(cat)_Y393A = active hMMP-9(cat)_Y393A (human, UniProt P14780 107-449); test: cell-based or functional assay
active hMMP-9(cat)_Y393A, sequence (P14780 107-449 Y393A): as the sequence (P14780 107-449 Q199G) above, with G93Q, Y287A counted along it

active hMMP-9(cat)_Y179A = active hMMP-9(cat)_Y179A (human, UniProt P14780 107-449); test: cell-based or functional assay
active hMMP-9(cat)_Y179A, sequence (P14780 107-449 Y179A): as the sequence (P14780 107-449 Q199G) above, with Y73A, G93Q counted along it

active hMMP-9(cat)_L187A = active hMMP-9(cat)_L187A (human, UniProt P14780 107-449); test: cell-based or functional assay
active hMMP-9(cat)_L187A, sequence (P14780 107-449 L187A): as the sequence (P14780 107-449 Q199G) above, with L81A, G93Q counted along it

active hMMP-9(cat) = active hMMP-9(cat) (human, UniProt P14780 107-449); test: cell-based or functional assay
active hMMP-9(cat), sequence (P14780 107-449): as the sequence (P14780 107-449 Q199G) above, with G93Q counted along it

active hMMP-9(cat)_Y420A = active hMMP-9(cat)_Y420A (human, UniProt P14780 107-449); test: cell-based or functional assay
active hMMP-9(cat)_Y420A, sequence (P14780 107-449 Y420A): as the sequence (P14780 107-449 Q199G) above, with G93Q, Y314A counted along it

active hMMP-9(cat)_V398A = active hMMP-9(cat)_V398A (human, UniProt P14780 107-449); test: cell-based or functional assay
active hMMP-9(cat)_V398A, sequence (P14780 107-449 V398A): as the sequence (P14780 107-449 Q199G) above, with G93Q, V292A counted along it

hMMP-9(cat)_E402Q_His6 = target: T3, hMMP-9(cat)_E402Q_His6 (human, UniProt P14780 107-449); test: size exclusion chromatography of the mixture
T3 construct: also called human MMP-9 enzyme active domain E402Q mutant; human MMP-9 E402Q mutant; not shown: His tag (His6 by the construct's name)
T3 sequence (P14780 107-449 E402Q): as the sequence (P14780 107-449 Q199G) above, with G93Q, E296Q counted along it
Procedure: After the reaction, 10 μl of the reaction solution was analyzed by size exclusion chromatography. The chromatographic conditions were as follows.

active hMMP-9(cat)_P193A = active hMMP-9(cat)_P193A (human, UniProt P14780 107-449); test: cell-based or functional assay
active hMMP-9(cat)_P193A, sequence (P14780 107-449 P193A): as the sequence (P14780 107-449 Q199G) above, with P87A, G93Q counted along it

active hMMP-9(cat)_R424T = active hMMP-9(cat)_R424T (human, UniProt P14780 107-449); test: cell-based or functional assay
active hMMP-9(cat)_R424T, sequence (P14780 107-449 R424T): as the sequence (P14780 107-449 Q199G) above, with G93Q, R318T counted along it

active hMMP-9(cat)_D185A = active hMMP-9(cat)_D185A (human, UniProt P14780 107-449); test: cell-based or functional assay
active hMMP-9(cat)_D185A, sequence (P14780 107-449 D185A): as the sequence (P14780 107-449 Q199G) above, with D79A, G93Q counted along it

T1 sequence (P14780 other isoform, or with tags, fused parts or gaps): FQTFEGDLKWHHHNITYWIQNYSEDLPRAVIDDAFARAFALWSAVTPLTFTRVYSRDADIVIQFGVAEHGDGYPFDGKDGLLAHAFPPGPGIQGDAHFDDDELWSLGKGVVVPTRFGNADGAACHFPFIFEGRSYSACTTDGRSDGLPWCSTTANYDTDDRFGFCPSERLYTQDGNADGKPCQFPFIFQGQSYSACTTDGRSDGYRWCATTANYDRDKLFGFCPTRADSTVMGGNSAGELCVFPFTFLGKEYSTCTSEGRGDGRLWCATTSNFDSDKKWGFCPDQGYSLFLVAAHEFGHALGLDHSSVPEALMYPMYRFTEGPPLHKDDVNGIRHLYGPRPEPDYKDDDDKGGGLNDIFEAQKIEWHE

B1: wild type SPINK2 (other)
chain: GSGMKETAAAKFERQHMDSPDLGTDDDDKAMADIGSANSDPQFGLFSKYRTPNCSQYRLPGCPRHFNPVCGSDMSTYANECTLCMKIREGGHNIKIIRNGPCGASAAA
notes: also called WT; human SPINK2
binding result [1]: no binding (tested: 1 to 1,000 nM) | binding result [2]: no binding (tested: 1 to 1,000 nM)

B2: active MMP-9-binding peptide M91001 (designed binder)
chain: GSGMKETAAAKFERQHMDSPDLGTDDDDKAMADIGSANSDPQFGLFSKYRTPNCQRGIGPSCQMSYKPVCGSDMSTYANECTLCMKIREGGHNIKIIRNGPCGASAAA
notes: SPINK2 mutant as prepared in (1-2): Stag+linker 1 at the N-terminal, C-terminal 6-mer at the C-terminal
binding result [1]: binds | binding result [2]: no binding (tested: 1 µM)

B3: active MMP-9-binding peptide M91002 (designed binder)
chain: B2 chain with Q55R, R56T, I58R, S61A, S65G, Y66F, K67Q
notes: as for B2
binding result [1]: binds | binding result [2]: no binding (tested: 1 µM)

B4: active MMP-9-binding peptide M91004 (designed binder)
chain: B2 chain with Q55R, R56Q, G57R, I58K, S65A, Y66F, K67Q
notes: as for B2
binding result [1]: binds | binding result [2]: no binding (tested: 1 µM)

B5: active MMP-9-binding peptide M91014 (designed binder)
chain: B2 chain with Q55V, R56M, G57Y, I58K, G59Y, P60A, S61Q, Q63S, M64H, S65K
notes: as for B2
binding result [1]: binds | binding result [2]: no binding (tested: 1 µM)

B6: active MMP-9-binding peptide M91005 (designed binder)
chain: B2 chain with Q55R, R56K, G57R, I58G, K67N
notes: as for B2
binding result [2]: no binding (tested: 1 µM) | IC50 of enzyme inhibition relative to the wild type (active hMMP-9(cat)_Q199G): 2.3 times | IC50 of enzyme inhibition relative to the wild type (active hMMP-9(cat)_F192A): > 57.8 times | IC50 of enzyme inhibition relative to the wild type (active hMMP-9(cat)_Y423A): 13.2 times | IC50 of enzyme inhibition relative to the wild type (active hMMP-9(cat)_M422I): 2.6 times | IC50 of enzyme inhibition relative to the wild type (active hMMP-9(cat)_F110A): 4 times | IC50 of enzyme inhibition relative to the wild type (active hMMP-9(cat)_L397A): 2.2 times | IC50 of enzyme inhibition relative to the wild type (active hMMP-9(cat)_Y393A): 2.7 times | IC50 of enzyme inhibition relative to the wild type (active hMMP-9(cat)_Y179A): 3.2 times | IC50 of enzyme inhibition relative to the wild type (active hMMP-9(cat)_L187A): 6.7 times | IC50 of inhibition of substrate peptide degradation (active hMMP-9(cat)): 17 nM | IC50 of enzyme inhibition relative to the wild type (active hMMP-9(cat)_Y420A): 3.1 times | IC50 of enzyme inhibition relative to the wild type (active hMMP-9(cat)_V398A): 2.2 times | binding result (hMMP-9(cat)_E402Q_His6): no binding (tested: 75 µM peptide with 25 µM target)

B7: active MMP-9-binding peptide M91010 (designed binder)
chain: B2 chain with Q55R, R56K, G57V, I58G, G59E, S61A, Y66F, K67N
notes: as for B2
binding result [1]: binds | binding result [2]: no binding (tested: 1 µM)

B8: active MMP-9-binding peptide M91012 (designed binder)
chain: B2 chain with Q55R, R56V, G57R, I58G, Y66F, K67N
notes: as for B2
binding result [1]: binds | binding result [2]: no binding (tested: 1 µM)

B9: active MMP-9-binding peptide M91011 (designed binder)
chain: GSGMKETAAAKFERQHMDSPDLGTDDDDKAMADIGSANSDPQFGLFSKYRTPNCMMYKYAQCSHKSQPVCGSDMSTYANECTLCMKIREGGHNIKIIRNGPCGASAAA
notes: as for B2
binding result [2]: no binding (tested: 1 µM) | IC50 of enzyme inhibition relative to the wild type (active hMMP-9(cat)_F192A): 5 times | IC50 of enzyme inhibition relative to the wild type (active hMMP-9(cat)_Y423A): > 20 times | IC50 of enzyme inhibition relative to the wild type (active hMMP-9(cat)_M422I): 2.6 times | IC50 of enzyme inhibition relative to the wild type (active hMMP-9(cat)_L397A): 3.5 times | IC50 of enzyme inhibition relative to the wild type (active hMMP-9(cat)_Y393A): > 57.6 times | IC50 of enzyme inhibition relative to the wild type (active hMMP-9(cat)_P193A): 6.5 times | IC50 of enzyme inhibition relative to the wild type (active hMMP-9(cat)_Y179A): 4.9 times | IC50 of inhibition of substrate peptide degradation (active hMMP-9(cat)): 17 nM | IC50 of enzyme inhibition relative to the wild type (active hMMP-9(cat)_V398A): 4.8 times | IC50 of enzyme inhibition relative to the wild type (active hMMP-9(cat)_R424T): 2.7 times | IC50 of enzyme inhibition relative to the wild type (active hMMP-9(cat)_D185A): 19 times | binding result (hMMP-9(cat)_E402Q_His6): no binding (tested: 75 µM peptide with 25 µM target)

— patent US20200231654A1 (Daiichi Sankyo, published 2020)
